From article PMC6521584, “Sucrose 6^F-phosphate phosphorylase: a novel insight in the human gut microbiome” (Microbial Genomics, 2019) come the findings set out here.

This data set concerns O=P(O)(O)OC[C@H]1O[C@@](CO)(O[C@H]2O[C@H](CO)[C@@H](O)[C@H](O)[C@H]2O)[C@@H](O)[C@@H]1O. In words: purified protein. The conditions noted are these: phosphorolysis, 100 mM sodium phosphate buffer as co-substrate, pH 6.0, 40 °C, 1.0-20 mM substrate. The format is biochemical, Mediterraneibacter gnavus.

As usually defined, the Km is the concentration of substrate that gives half-maximal velocity. A word on the kcat: it is the maximal rate divided by the concentration of active sites. The kcat/Km is the turnover number divided by the Michaelis constant.

With “RgSPP (sucrose 6^F-phosphate phosphorylase; formerly SucP) (Mediterraneibacter gnavus)”, the Km is recorded as 1.70 mM, the kcat was 740 s⁻¹ and the specificity constant (kcat/Km) was found to be 435000 M⁻¹ s⁻¹.
